Values of other authors as cited in paper PMC11402941.

How the values were obtained:
[1] = target: PSGL-1 (Homo sapiens) (UniProt Q14242)
[2] = target: VSIG3 (Homo sapiens) (UniProt Q5DX21)
Sequence of UniProt Q5DX21 (Q5DX21 23-241): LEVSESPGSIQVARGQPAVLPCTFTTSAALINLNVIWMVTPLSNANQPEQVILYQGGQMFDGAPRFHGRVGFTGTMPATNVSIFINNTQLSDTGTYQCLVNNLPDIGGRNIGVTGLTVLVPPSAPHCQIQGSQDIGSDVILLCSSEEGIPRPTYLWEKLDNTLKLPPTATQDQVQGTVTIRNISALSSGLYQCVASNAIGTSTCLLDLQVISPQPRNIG

Sequence of UniProt Q14242 (Q14242 42-320): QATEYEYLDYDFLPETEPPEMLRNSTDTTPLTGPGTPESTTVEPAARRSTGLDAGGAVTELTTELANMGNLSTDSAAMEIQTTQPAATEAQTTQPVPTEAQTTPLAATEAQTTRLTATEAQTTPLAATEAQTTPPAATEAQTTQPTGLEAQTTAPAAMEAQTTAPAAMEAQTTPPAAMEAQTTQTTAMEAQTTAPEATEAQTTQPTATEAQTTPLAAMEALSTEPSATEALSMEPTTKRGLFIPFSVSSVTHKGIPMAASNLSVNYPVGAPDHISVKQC

VISTA (from UniProt Q9H7M9)
Kd [1]: 0.004 µM
Kd [2]: 0.08 µM
